Data: patent US20260242448A1 (INSTITUTE OF MICROBIOLOGY CHINESE ACADEMY OF SCIENCES, published 2026)

Columns and labels:
[1] = target: S protein of the SARS-CoV-2 Delta strain on pseudo-virus (SARS-CoV-2 Delta strain); test: cell-based or functional assay
[2] = target: T1, S protein of the SARS-CoV-2 BA.1 strain on pseudo-virus (SARS-CoV-2 BA.1 strain); test: cell-based or functional assay
[3] = target: T2, S protein of the SARS-CoV-2 BA.2.75 strain on pseudo-virus (SARS-CoV-2 BA.2.75 strain); test: cell-based or functional assay
[4] = target: T3, S protein of the SARS-CoV-2 BA.4/5 strains on pseudo-virus (SARS-CoV-2 BA.4/5 strain); test: cell-based or functional assay
[5] = target: T4, S protein of the SARS-CoV-2 BF.7 strain on pseudo-virus (SARS-CoV-2 BF.7 strain); test: cell-based or functional assay
[6] = target: T5, S protein of the SARS-CoV-2 BQ.1 strain on pseudo-virus (SARS-CoV-2 BQ.1 strain); test: cell-based or functional assay
[7] = target: T6, S protein of the SARS-CoV-2 BQ.1.1 strain on pseudo-virus (SARS-CoV-2 BQ.1.1 strain); test: cell-based or functional assay
[8] = target: T7, S protein of the SARS-CoV-2 XBB strain on pseudo-virus (SARS-CoV-2 XBB strain); test: cell-based or functional assay
[9] = target: T8, S protein of the SARS-CoV-2 XBB.1.5 strain on pseudo-virus (SARS-CoV-2 XBB.1.5 strain); test: cell-based or functional assay
[10] = target: T1, S protein of the SARS-CoV-2 BA.1 strain …; test: cell-based or functional assay; remark: listed apart in the source
[11] = target: S protein of the SARS-CoV-2 BA.1.1 strain on pseudo-virus (SARS-CoV-2 BA.1.1 strain); test: cell-based or functional assay
[12] = target: S protein of the SARS-CoV-2 BA.2 strain on pseudo-virus (SARS-CoV-2 BA.2 strain); test: cell-based or functional assay
[13] = target: T2, S protein of the SARS-CoV-2 BA.2.75 …; test: cell-based or functional assay; remark: listed apart in the source
[14] = target: S protein of the SARS-CoV-2 BA.3 strain on pseudo-virus (SARS-CoV-2 BA.3 strain); test: cell-based or functional assay
[15] = target: T3, S protein of the SARS-CoV-2 BA.4/5 …; test: cell-based or functional assay; remark: listed apart in the source
[16] = target: T4, S protein of the SARS-CoV-2 BF.7 strain …; test: cell-based or functional assay; remark: listed apart in the source
[17] = target: T5, S protein of the SARS-CoV-2 BQ.1 strain …; test: cell-based or functional assay; remark: listed apart in the source
[18] = target: T6, S protein of the SARS-CoV-2 BQ.1.1 …; test: cell-based or functional assay; remark: listed apart in the source
[19] = target: T7, S protein of the SARS-CoV-2 XBB strain …; test: cell-based or functional assay; remark: listed apart in the source
[20] = target: T8, S protein of the SARS-CoV-2 XBB.1.5 …; test: cell-based or functional assay; remark: listed apart in the source
[21] = target: S protein of the SARS-CoV-2 XBB.1.16 strain on pseudo-virus (SARS-CoV-2 XBB.1.16 strain); test: cell-based or functional assay
[22] = target: T9, RBD of the S protein of the BA.1.1 strain (SARS-CoV-2 BA.1.1 strain); test: ELISA on plate-coated RBD (1 µg/mL), HRP anti-human Fc detection, OD450
T9 construct: domain: RBD; also called BA.1.1 RBD

[23] = target: T10, RBD of the S protein of the BA.2.12.1 strain (SARS-CoV-2 BA.2.12.1 strain); test: as above
T10 construct: domain: RBD; also called BA.2.12.1 RBD

[24] = target: T11, SARS-CoV-2 (BA.5) Spike RBD (SARS-CoV-2 BA.5 strain); test: as above
T11 construct: domain: RBD; also called BA.5 RBD

Binder | Neutralization activity (IC50) against pseudo-virus [1] [µg/mL] | Neutralization activity (IC50) against pseudo-virus [2] [µg/mL] | Neutralization activity (IC50) against pseudo-virus [3] [µg/mL] | Neutralization activity (IC50) against pseudo-virus [4] [µg/mL] | Neutralization activity (IC50) against pseudo-virus [5] [µg/mL] | Neutralization activity (IC50) against pseudo-virus [6] [µg/mL] | Neutralization activity (IC50) against pseudo-virus [7] [µg/mL] | Neutralization activity (IC50) against pseudo-virus [8] [µg/mL] | Neutralization activity (IC50) against pseudo-virus [9] [µg/mL] | Neutralization Effects (IC50) against SARS-CoV-2 pseudo-viruses [10] [µg/mL] | Neutralization Effects (IC50) against SARS-CoV-2 pseudo-viruses [11] [µg/mL] | Neutralization Effects (IC50) against SARS-CoV-2 pseudo-viruses [12] [µg/mL] | Neutralization Effects (IC50) against SARS-CoV-2 pseudo-viruses [13] [µg/mL] | Neutralization Effects (IC50) against SARS-CoV-2 pseudo-viruses [14] [µg/mL] | Neutralization Effects (IC50) against SARS-CoV-2 pseudo-viruses [15] [µg/mL] | Neutralization Effects (IC50) against SARS-CoV-2 pseudo-viruses [16] [µg/mL] | Neutralization Effects (IC50) against SARS-CoV-2 pseudo-viruses [17] [µg/mL] | Neutralization Effects (IC50) against SARS-CoV-2 pseudo-viruses [18] [µg/mL] | Neutralization Effects (IC50) against SARS-CoV-2 pseudo-viruses [19] [µg/mL] | Neutralization Effects (IC50) against SARS-CoV-2 pseudo-viruses [20] [µg/mL] | other results
monoclonal antibody L4.65 (antibody, V domains shown, also called monoclonal antibody 65; 65IgG) VH: QITLKESGPTLVKPTQTLTLTCTFSGFSLSTSGVGVAWIRQPPGKALEWLALIYWDNDKRSSPSLNNRLTITKDTSKNQVVLTMTNMDPEDTATYYCAHFFSHYDSSNYYYGSWFDPWGQGTLVTVSS VL: EIVLTQSPGTLSLSPGERATLSCRASQSFDSRYLGWYQQKSGQAPRLLIYGASSRATGIPDRFSGSGSGTDFTLTISRLEPEDFAVYYCQQFGDSPFTFGQGTKLEIKR | 0.00252 | 0.00135 | 0.0112 | 0.00138 | 0.00212 | > 2 | > 2 | 0.0214 | 0.0541 | 0.000394 | 0.00028 | 0.00039 | 0.00194 | 0.00044 | 0.000377 | 0.000446 | 2.09 | 4.58 | 0.00335 | 0.0137 | Neutralization Effects (IC50) against SARS-CoV-2 pseudo-viruses [21]: 0.0103 µg/mL; EC50 [22]: 5.92 pM; EC50 [23]: 64.1 pM; EC50 [24]: 105 pM
monoclonal antibody CoV56 (antibody, V domains shown, also called monoclonal antibody 56; 56IgG) VH: EVQLVESGGGVVQPGGSLRLSCAVSGFTFDDYAMHWVRQAPGKGLDWVSLISGDGSYTYYADSVKGRFTISRDSSKNSLYLQMNSLRTEDTALYYCAKAQTPTLWWLQDAFDIWGQGTMVTVSS VL: not shown | > 2 | > 2 | > 2 | > 2 | > 2 | > 2 | > 2 | > 2 | > 2 | 14.8 | 10.8 | 8.32 | 58.8 | 18.5 | 7.53 | 11.7 | 19.6 | 15.9 | 15.9 | 11.8 | Neutralization Effects (IC50) against SARS-CoV-2 pseudo-viruses [21]: 21.7 µg/mL; EC50 [22]: 45.4 pM; EC50 [23]: 83.9 pM; EC50 [24]: 167 pM
